According to paper PMC9630130, “Molecular interactions of FG nucleoporin repeats at high resolution” (Nature Chemistry, 2022):

What was measured:
[1] = molecular target: the molecule itself; test: cryo-EM structure; amyloid fibrils of Nup98^FG85: peptide dissolved in pure water at 1.5 mM, incubated at 25 °C for 1 h; helical reconstruction of four polymorphs (pm1-pm4)
[2] = molecular target: the molecule itself; test: aggregation of NMR assignment samples; 2 mM peptide in 50 mM sodium phosphate, 0.01% NaN3, 5% D2O, pH 6.8; NMR at 5 °C
[3] = molecular target: the molecule itself; test: loss of 1D 1H NMR signal on change of pH; Nup98^FG (200 μM) or Nup98^FG85 (100 μM) in 50 mM sodium phosphate, 1 mM TCEP, 0.01% NaN3, 5% D2O; pH 3, adjusted to pH 7, then back to pH 3 and 30 min at 65 °C
[4] = molecular target: the molecule itself; test: time-dependent loss of NMR signal (self-association/aggregation); synthetic Nup98 peptides alone in solution; propensity = difference between the NMR signal expected for the peptide concentration and that observed after 1 day of incubation at 5 °C (Fig. 2c); kinetics of 95-124 and its mutants in Supplementary Fig. 5

B1: Nup98^FG85 (residues 85–124 of human Nup98) (peptide, UniProt P52948 85-124, looked up)
peptide: TGTANTLFGTASTGTSLFSSQNNAFAQNKPTGFGNFGTST
notes: It forms amyloid fibrils of indefinite length with 3 (pm1) or 2 (pm2-pm4) protofilaments; also called Nup98^FG85 segment; source: synthetic peptide (solid-phase synthesis, Genscript)
**Q.** Does B1 bind [1]?
**A.** Result: binds

B2: Nup98(345–384) peptide (peptide, UniProt P52948 345-384, looked up)
peptide: Ac-TGTGLFGQTNTGFGAVGSTLFGNNKLTTFGSSTTSAPSFG-NH2
notes: human nucleoporin 98 (Nup98), residues 345-384; source: synthetic peptide (solid-phase synthesis, Genscript)
**Q.** Does B2 bind [2]?
**A.** Result: binds

B3: FG-repeat domain of human Nup98 (Nup98^FG, residues 1–384) (domain or fragment, UniProt P52948 1-384, looked up)
chain: MFNKSFGTPFGGGTGGFGTTSTFGQNTGFGTTSGGAFGTSAFGSSNNTGGLFGNSQTKPGGLFGTSSFSQPATSTSTGFGFGTSTGTANTLFGTASTGTSLFSSQNNAFAQNKPTGFGNFGTSTSSGGLFGTTNTTSNPFGSTSGSLFGPSSFTAAPTGTTIKFNPPTGTDTMVKAGVSTNISTKHQCITAMKEYESKSLEELRLEDYQANRKGPQNQVGAGTTTGLFGSSPATSSATGLFSSSTTNSGFAYGQNKTAFGTSTTGFGTNPGGLFGQQNQQTTSLFSKPFGQATTTQNTGFSFGNTSTIGQPSTNTMGLFGVTQASQPGGLFGTATNTSTGTAFGTGTGLFGQTNTGFGAVGSTLFGNNKLTTFGSSTTSAPSFG
notes: human nucleoporin 98 (Nup98), amino-terminal 384 residues (FG-repeat domain), in pET28a between NheI and XhoI; The methods describe no step that cleaves the His tag; also called 384-residue Nup98^FG domain; source: E. coli BL21(DE3), purified from the pellet in urea (Ni-NTA, two SEC steps)
**Q.** Does B3 bind [3]?
**A.** Result: binds

B4: Nup98(95–124) peptide (peptide, UniProt P52948 95-124, looked up)
peptide: Ac-ASTGTSLFSSQNNAFAQNKPTGFGNFGTST-NH2
notes: source: synthetic peptide (solid-phase synthesis, Genscript)
**Q.** Does B4 bind [4]?
**A.** Result: binds

B5: Nup98(95–124) peptide with F117 and F120 replaced by serine (peptide, UniProt P52948 95-124, looked up)
peptide: ASTGTSLFSSQNNAFAQNKPTGSGNSGTST
notes: also called phenylalanine-to-serine mutant peptide; source: synthetic peptide (solid-phase synthesis, Genscript)
**Q.** Does B5 bind [4]?
**A.** Result: binds

B6: Nup98(95–124) peptide with Q105 and Q111 replaced by serine (peptide, UniProt P52948 95-124, looked up)
peptide: ASTGTSLFSSSNNAFASNKPTGFGNFGTST
notes: also called glutamine-to-serine mutant peptide; source: synthetic peptide (solid-phase synthesis, Genscript)
**Q.** Does B6 bind [4]?
**A.** Result: binds

B7: Nup98(298–327) peptide (peptide, UniProt P52948 298-327, looked up)
peptide: Ac-TGFSFGNTSTIGQPSTNTMGLFGVTQASQP-NH2
notes: human nucleoporin 98 (Nup98), residues 298-327; source: synthetic peptide (solid-phase synthesis, Genscript)
**Q.** Does B7 bind [2]?
**A.** Result: binds
